Residue numbers refer to the chain shown, from its start.

Kd data for 4 molecules are collected here from patent publication US20050003420, “Recycled mutagenesis of restriction endonuclease toward enhanced catalytic activity” (published 2005).

Data set [1] has as its target T1, BsoBI D246Y (UniProt P70985 P70985:1-323, D246Y).
T1 sequence: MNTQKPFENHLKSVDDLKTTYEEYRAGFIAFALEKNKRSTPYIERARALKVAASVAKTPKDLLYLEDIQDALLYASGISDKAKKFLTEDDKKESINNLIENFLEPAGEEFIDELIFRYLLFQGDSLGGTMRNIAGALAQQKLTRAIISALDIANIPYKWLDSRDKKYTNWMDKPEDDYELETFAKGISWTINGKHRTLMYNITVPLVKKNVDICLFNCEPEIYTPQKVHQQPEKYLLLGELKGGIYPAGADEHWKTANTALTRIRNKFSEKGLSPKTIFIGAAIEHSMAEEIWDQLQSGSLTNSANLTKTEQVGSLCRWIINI
Briefly: filter; 4 mM CaCl2; ±16. To be noted: chain copies: 2 inferred; label: 33P 5' end. Here is the method:
(§1) The binding condition was in 10 mM Tris-HCl, pH 7.5, 100 mM NaCl, 50 mg/ml BSA, 4 mM CaCl₂ in […] volume. The labeled DNA substrates were diluted to a final scintillation count of 1000-5000 cpm and varying amount of BsoBI or each variant was added. Following incubation at room temperature for 10 min, the bound complex was loaded onto Micropure EZ column (Millipore Corporation, Bedford, Mass.) and spun at 16K g for 1 min. Protein and protein:DNA complexes are bound to the membrane in the Micropure EZ column and only the free unbound DNA is in the flow-through fraction. 180 μl of the flow-through liquid was immediately transferred to scintillation counting vials filled with 1.5 ml OPTI-FLUOR for aqueous samples (Packard, Meriden, Conn.). The radioactivity count from the sample without BsoBI is F₀, and the radioactivity count from sample with BsoBI or each variant is F. The apparent Kd value is calculated from F/F₀ and the BsoBI concentration [E] according to equation [1]. F/F₀=a [Kd/([E]+Kd)]+b a and b are equation fitting parameters, where b is the non-specific flow-through, and a is the maximum change amplitude.
(§2) DNA binding properties of BsoBI endonuclease and variants: To obtain reproducible BsoBI:DNA binding data, a filter binding assay utilizing a microcentrifuge filter was developed. […]

The target in data set [2] is T2, BsoBI restriction endonuclease (UniProt P70985 P70985:1-323).
T2 sequence: T1 sequence with Y246D
Briefly: filter; 4 mM CaCl2, 100 mM NaCl, pH 7.5, room temp; ±2.0. As to conditions: tags: untagged, expressed from pRRS-bsoBIR in E. coli ER2683; chain copies: 2 inferred; label: 33P 5' end. As to the method: as §1, §2

Data set [3] has as its target T3, BsoBI D246R (UniProt P70985 P70985:1-323, D246R).
T3 sequence: T1 sequence with Y246R
As to the kind of experiment: filter; 4 mM CaCl2; ±20. To be noted: chain copies: 2 inferred; label: 33P 5' end. As to the method:
as §1, §2

For data set [4], the target named is T4, BsoBI D246C (UniProt P70985 P70985:1-323, D246C).
T4 sequence: T1 sequence with Y246C
Briefly: filter; 4 mM CaCl2; ±11. As to conditions: chain copies: 2 inferred; label: 33P 5' end. Here is the method:
as §1, §2

Data set [5] deals with T5, BsoBI D246A (UniProt P70985 P70985:1-323, D246A).
T5 sequence: T1 sequence with Y246A
As to the kind of experiment: filter; 4 mM CaCl2; ±40. To be noted: chain copies: 2 inferred; label: 33P 5' end. Here is the method:
as §1, §2

The target in data set [6] is T6, BsoBI D246E (UniProt P70985 P70985:1-323, D246E).
T6 sequence: T1 sequence with Y246E
Briefly: filter; 4 mM CaCl2; ±20000. As to conditions: chain copies: 2 inferred; label: 33P 5' end. As to the method:
as §1, §2

The target in data set [7] is T1, BsoBI D246Y. As to the kind of experiment: filter; 4 mM CaCl2; ±67. As to conditions: chain copies: 2 inferred; label: 33P 5' end. Here is the method: as §1, §2
The target of data set [8] is T3, BsoBI D246R. Briefly: filter; 4 mM CaCl2; ±4.9; increased non-specific binding. To be noted: chain copies: 2 inferred; label: 33P 5' end. As to the method:
as §1, §2

Data set [9] deals with T4, BsoBI D246C. Briefly: filter; 4 mM CaCl2; ±10. As to conditions: chain copies: 2 inferred; label: 33P 5' end. Here is the method:
as §1, §2

The target in data set [10] is T5, BsoBI D246A. As to the kind of experiment: filter; 4 mM CaCl2; ±97. As to conditions: chain copies: 2 inferred; label: 33P 5' end. As to the method:
as §1, §2

The target in data set [11] is T2, BsoBI restriction endonuclease. Briefly: filter; 4 mM CaCl2, non-specific control; ±143. To be noted: tags: untagged, expressed from pRRS-bsoBIR in E. coli ER2683; chain copies: 2 inferred; label: 33P 5' end. As to the method:
as §1, §2

The target of data set [12] is T6, BsoBI D246E. Briefly: filter; 4 mM CaCl2; ±3347. To be noted: chain copies: 2 inferred; label: 33P 5' end. As to the method:
as §1, §2

Data set [13] has as its target T4, BsoBI D246C. As to the kind of experiment: filter; 4 mM CaCl2; ±9.8. As to conditions: chain copies: 2 inferred; label: 33P 5' end. As to the method:
as §1, §2

Data set [14] concerns the target T2, BsoBI restriction endonuclease. As to the kind of experiment: filter; 4 mM CaCl2, 100 mM NaCl, pH 7.5, room temp; ±0.9. To be noted: tags: untagged, expressed from pRRS-bsoBIR in E. coli ER2683; chain copies: 2 inferred; label: 33P 5' end. As to the method: as §1, §2
Data set [15] addresses T6, BsoBI D246E. As to the kind of experiment: filter; 4 mM CaCl2; ±1578. To be noted: chain copies: 2 inferred; label: 33P 5' end. Here is the method:
as §1, §2

In data set [16] the target is T5, BsoBI D246A. Briefly: filter; 4 mM CaCl2; ±4. As to conditions: chain copies: 2 inferred; label: 33P 5' end. Here is the method: as §1
(§3) DNA binding properties of BsoBI endonuclease and variants: To obtain reproducible BsoBI:DNA binding data, a filter binding assay utilizing a microcentrifuge filter was developed. In the control experiment, more than 99% of the wt BsoBI endonuclease was retained on the filter of the spin column. When labeled duplex DNA was loaded onto the membrane in the absence of protein, more than 95% of the DNA passed through the column. […] The heat-treatment step removed approximately 80% of E. coli proteins. The filter-binding assay was performed for wt BsoBI endonuclease and variants D246A, D246C, D246E, D246R, and D246Y in the presence of Ca⁺⁺. The inclusion of Ca⁺⁺ in the binding buffer stabilizes the protein:DNA complex in DNA mobility shift assays (data not shown) and it was presumed that Ca⁺⁺ does the same in the filter binding assay.

Data set [17] has as its target T1, BsoBI D246Y. As to the kind of experiment: filter; 4 mM CaCl2; ±4. As to conditions: chain copies: 2 inferred; label: 33P 5' end. Here is the method: as §1, §3
Data set [18] has as its target T3, BsoBI D246R. As to the kind of experiment: filter; 4 mM CaCl2; ±4.6. To be noted: chain copies: 2 inferred; label: 33P 5' end. As to the method: as §1, §2
In data set [19] the target is T6, BsoBI D246E. As to the kind of experiment: filter; 4 mM CaCl2; ±683. As to conditions: chain copies: 2 inferred; label: 33P 5' end. As to the method: as §1, §2
The target in data set [20] is T1, BsoBI D246Y. Briefly: filter; 4 mM CaCl2; ±2. To be noted: chain copies: 2 inferred; label: 33P 5' end. Here is the method:
as §1, §2

Data set [21] deals with T3, BsoBI D246R. Briefly: filter; 4 mM CaCl2; ±3.5. As to conditions: chain copies: 2 inferred; label: 33P 5' end. As to the method: as §1, §2
Data set [22] concerns the target T4, BsoBI D246C. As to the kind of experiment: filter; 4 mM CaCl2; ±4. To be noted: chain copies: 2 inferred; label: 33P 5' end. Here is the method: as §1, §3
The target in data set [23] is T2, BsoBI restriction endonuclease. Briefly: filter; 4 mM CaCl2, 100 mM NaCl, pH 7.5, room temp; ±1.2. To be noted: tags: untagged, expressed from pRRS-bsoBIR in E. coli ER2683; chain copies: 2 inferred; label: 33P 5' end. Here is the method:
as §1, §2

Data set [24] addresses T5, BsoBI D246A. As to the kind of experiment: filter; 4 mM CaCl2; ±0.6. As to conditions: chain copies: 2 inferred; label: 33P 5' end. As to the method: as §1, §2

B1: S1 (CTCGAG) (dsDNA)
DNA 1: GAGTGTTATGGGTAGCTCGAGTGAAGTGGGAATATC
DNA 2: GATATTCCCACTTCACTCGAGCTACCCATAACACTC
In the case of B1, the Kd (usually the constant that tells how readily two partners part at equilibrium) amounted to 0.132 nM in [1]; 0.0092 nM in data set [2]; 0.089 nM in [3]; 0.074 nM in data set [4]; 0.219 nM in data set [5]; 80 nM in [6].

B2: N (CATAAC, non-specific) (dsDNA)
DNA 1: B1 DNA 1 with T17A, C18T, G19A, G21C
DNA 2: B1 DNA 2 with C16G, C18T, G19A, A20T
Regarding B2, the dissociation constant Kd is 0.449 nM in data set [7]; 0.064 nM in data set [8]; 0.142 nM in [9]; 0.578 nM in data set [10]; 1.45 nM in data set [11]; 93.2 nM in [12].

B3: S3 (CTCGGG/CCCGAG) (dsDNA)
DNA 1: B1 DNA 1 with A20G
DNA 2: B1 DNA 2 with T17C
On to B3, for which the Kd in data set [13] was 0.064 nM; in data set [14], 0.0053 nM; in data set [15], 42.1 nM; in [16], 0.017 nM; in [17] it was 0.057 nM; in [18], 0.039 nM.

B4: S2 (CCCGGG) (dsDNA)
DNA 1: B1 DNA 1 with T17C, A20G
DNA 2: B1 DNA 2 with T17C, A20G
As for B4, the Kd was determined as 2.84 nM in [19]; 0.041 nM in data set [20]; 0.038 nM in data set [21]; 0.03 nM in data set [22]; 0.0066 nM in [23]; 0.0031 nM in data set [24].
